We go through 2 sequences from patent US20160068865.

For series [1], the system named is ZFN 17747 (IgM) (synthetic). Description: cell_activity. Particulars: pair 17747/17749, CMV promoter, C6 chromosomes cleaved (about 1% with CAG); 5 of 43 rats modified.
Series [2] concerns ZFN 17749 (IgM) (synthetic). Description: cell_activity. The following applies: pair 17747/17749, CMV promoter, C6 chromosomes cleaved (about 1% with CAG); 5 of 43 rats modified.

In the case of “AATTTGGTGGCCATGGGC (double strand) [IgM target of 17747]”, the activity in series [1] worked out at 3%. In turn, “AGACAGGGGGCTCTC (double strand) [IgM target of 17749]” came in with an activity in series [2] of 3%.
